The text below walks through data of the supplement of paper PMC9112550, “Optimization of the antimicrobial peptide Bac7 by deep mutational scanning” (BMC Biology, 2022).

This data set relates to Escherichia coli TOP10. Nature of the data set: shrunken log2 fold change of peptide-encoding DNA abundance (4.5 h post-induction vs induction); higher = less antimicrobial activity (less host growth inhibition). As to conditions: time post-induction: 4.5 h; library: site-saturation at positions 5, 18, 19, 20.
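Note: peptides expressed intracellularly from a pBAD plasmid library in pooled LB shake-flask culture, induced with 0.3% L-arabinose, DNA abundance read by NGS, three biological replicates, DESeq2 with apeglm shrinkage.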

Take RRIRHRPPRLPRPRPRPCVLPRP: the “shrunken log2 fold change” value was -0.14. In the case of RRIRTRPPRLPRPRPRPEDLPRP, the “shrunken log2 fold change” value worked out at 0.0657. Turning to RRIRDRPPRLPRPRPRPQNDPRP, the “shrunken log2 fold change” value is -0.215. Turning to RRIRQRPPRLPRPRPRPEHDPRP, the “shrunken log2 fold change” value is -0.0684. For the sequence RRIRYRPPRLPRPRPRPSLGPRP, the “shrunken log2 fold change” value was -0.297. For RRIRERPPRLPRPRPRPNHHPRP, the “shrunken log2 fold change” value is -0.845. Consider RRIRRRPPRLPRPRPRPRSAPRP, for which the “shrunken log2 fold change” value turned out to be 0.532.

As for RRIRMRPPRLPRPRPRPEQIPRP, the “shrunken log2 fold change” value stood at 0.527. On to RRIRYRPPRLPRPRPRPSVTPRP, for which the “shrunken log2 fold change” value was -0.421. RRIRTRPPRLPRPRPRPQVCPRP: the “shrunken log2 fold change” value was 0.0443. With RRIRCRPPRLPRPRPRPWRGPRP, the “shrunken log2 fold change” value was 0.185. As for RRIRVRPPRLPRPRPRPMSMPRP, the “shrunken log2 fold change” value was -0.323. Then RRIRDRPPRLPRPRPRPTEFPRP, with -0.0306; and RRIRPRPPRLPRPRPRPPFVPRP, with 0.139. Then RRIRHRPPRLPRPRPRPIMTPRP, with -0.895; and RRIRLRPPRLPRPRPRPCYFPRP, with -0.232; and RRIRERPPRLPRPRPRPCEDPRP, with 0.0101. As to RRIRRRPPRLPRPRPRPYLHPRP, the “shrunken log2 fold change” value is -0.307. Take RRIRDRPPRLPRPRPRPRFCPRP: the “shrunken log2 fold change” value is 0.341.

Consider RRIRCRPPRLPRPRPRPNPEPRP, for which the “shrunken log2 fold change” value stood at 0.448. As to RRIRLRPPRLPRPRPRPINIPRP, the “shrunken log2 fold change” value is -0.735. Take RRIRWRPPRLPRPRPRPQGNPRP: the “shrunken log2 fold change” value is -1.12. With RRIRVRPPRLPRPRPRPEMLPRP, the “shrunken log2 fold change” value amounted to 0.0987.

As for RRIRERPPRLPRPRPRPRYCPRP, the “shrunken log2 fold change” value is -0.516. On to RRIRNRPPRLPRPRPRPQTGPRP, for which the “shrunken log2 fold change” value is -0.505.

In the case of RRIRPRPPRLPRPRPRPNTIPRP, the “shrunken log2 fold change” value is -0.553. Take RRIRPRPPRLPRPRPRPVDKPRP: the “shrunken log2 fold change” value is -0.153. With RRIRRRPPRLPRPRPRPTKTPRP, the “shrunken log2 fold change” value worked out at 0.049. As for RRIRYRPPRLPRPRPRPGQCPRP, the “shrunken log2 fold change” value was found to be 0.00338. For RRIRTRPPRLPRPRPRPEGNPRP, the “shrunken log2 fold change” value was -0.311. As for RRIRTRPPRLPRPRPRPRIQPRP, the “shrunken log2 fold change” value stood at 0.214. For the sequence RRIRIRPPRLPRPRPRPDGRPRP, the “shrunken log2 fold change” value is -0.13.

In the case of RRIRWRPPRLPRPRPRPKENPRP, the “shrunken log2 fold change” value is 0.373. Then RRIRNRPPRLPRPRPRPCHPPRP, with -0.0698. Take RRIRSRPPRLPRPRPRPYMYPRP: the “shrunken log2 fold change” value was -0.466.

On to RRIRMRPPRLPRPRPRPNNFPRP, for which the “shrunken log2 fold change” value is -0.169. In the case of RRIRDRPPRLPRPRPRPHINPRP, the “shrunken log2 fold change” value is -0.683. Turning to RRIRWRPPRLPRPRPRPMYEPRP, the “shrunken log2 fold change” value is -0.103. Take RRIRFRPPRLPRPRPRPFFLPRP: the “shrunken log2 fold change” value was -0.32.

As to RRIRFRPPRLPRPRPRPFRRPRP, the “shrunken log2 fold change” value is -0.0629. The figure for RRIRQRPPRLPRPRPRPHFEPRP is 0.154. As for RRIRIRPPRLPRPRPRPAPAPRP, the “shrunken log2 fold change” value came out at 0.31.

For the sequence RRIRMRPPRLPRPRPRPHDYPRP, the “shrunken log2 fold change” value stood at 1.54.

As to RRIRQRPPRLPRPRPRPRPVPRP, the “shrunken log2 fold change” value stood at 0.336. With RRIRKRPPRLPRPRPRPTETPRP, the “shrunken log2 fold change” value is 0.114. As for RRIRRRPPRLPRPRPRPFNVPRP, the “shrunken log2 fold change” value was -0.264.

Consider RRIRQRPPRLPRPRPRPPAQPRP, for which the “shrunken log2 fold change” value was 0.0181. In the case of RRIRLRPPRLPRPRPRPENRPRP, the “shrunken log2 fold change” value stood at 0.097. As to RRIRTRPPRLPRPRPRPNGCPRP, the “shrunken log2 fold change” value is 0.0101.

Consider RRIRNRPPRLPRPRPRPTHAPRP, for which the “shrunken log2 fold change” value worked out at 0.337. For RRIRKRPPRLPRPRPRPDDNPRP, the “shrunken log2 fold change” value came to 1.02. As for RRIRWRPPRLPRPRPRPDIWPRP, the “shrunken log2 fold change” value was 0.642. Then RRIRTRPPRLPRPRPRPQEMPRP, with -0.0617; and RRIRYRPPRLPRPRPRPKDQPRP, with -0.48; and RRIRKRPPRLPRPRPRPLQHPRP, with 0.657. RRIRTRPPRLPRPRPRPVVLPRP: the “shrunken log2 fold change” value is -0.149. On to RRIRPRPPRLPRPRPRPIHNPRP, for which the “shrunken log2 fold change” value was -0.569. Consider RRIRYRPPRLPRPRPRPENKPRP, for which the “shrunken log2 fold change” value was -0.725.

For RRIRVRPPRLPRPRPRPPEWPRP, the “shrunken log2 fold change” value is -0.00654.

For RRIRPRPPRLPRPRPRPWWSPRP, the “shrunken log2 fold change” value was determined as 0.361. The figure for RRIRTRPPRLPRPRPRPCFPPRP is -0.141; for RRIRVRPPRLPRPRPRPRCVPRP it is 0.0659; for RRIRWRPPRLPRPRPRPQIKPRP it is -0.21. For the sequence RRIRHRPPRLPRPRPRPIQIPRP, the “shrunken log2 fold change” value is -0.139. Then RRIRKRPPRLPRPRPRPWAEPRP, with 0.0785.

In the case of RRIRIRPPRLPRPRPRPFVDPRP, the “shrunken log2 fold change” value was -0.65. Then RRIRNRPPRLPRPRPRPACFPRP, with 0.0188; and RRIRYRPPRLPRPRPRPRFYPRP, with -0.45; and RRIRFRPPRLPRPRPRPHIYPRP, with -1.22. Consider RRIRDRPPRLPRPRPRPTSWPRP, for which the “shrunken log2 fold change” value stood at 0.989.

For the sequence RRIRQRPPRLPRPRPRPVTPPRP, the “shrunken log2 fold change” value is -0.00477. As to RRIRYRPPRLPRPRPRPHNGPRP, the “shrunken log2 fold change” value is -0.0705. For the sequence RRIRCRPPRLPRPRPRPSDGPRP, the “shrunken log2 fold change” value was -0.0084. In the case of RRIRQRPPRLPRPRPRPGPEPRP, the “shrunken log2 fold change” value turned out to be 0.0674. RRIRWRPPRLPRPRPRPPTIPRP: the “shrunken log2 fold change” value is -0.0126. RRIRERPPRLPRPRPRPAPGPRP: the “shrunken log2 fold change” value turned out to be 0.325. Turning to RRIRARPPRLPRPRPRPEMTPRP, the “shrunken log2 fold change” value is 1.23. Regarding RRIRYRPPRLPRPRPRPPTPPRP, the “shrunken log2 fold change” value amounted to 0.104. For the sequence RRIRERPPRLPRPRPRPVQAPRP, the “shrunken log2 fold change” value turned out to be 0.014. Consider RRIRCRPPRLPRPRPRPEACPRP, for which the “shrunken log2 fold change” value is 0.0368. Regarding RRIRFRPPRLPRPRPRPYGEPRP, the “shrunken log2 fold change” value is -0.0721. RRIRCRPPRLPRPRPRPLHCPRP: the “shrunken log2 fold change” value is -0.1. Then RRIRNRPPRLPRPRPRPDWQPRP, with 0.184; and RRIRERPPRLPRPRPRPSALPRP, with -0.373. Turning to RRIRDRPPRLPRPRPRPLRGPRP, the “shrunken log2 fold change” value stood at 0.112. For RRIRQRPPRLPRPRPRPWSTPRP, the “shrunken log2 fold change” value was -0.0264.

RRIRRRPPRLPRPRPRPYNNPRP: the “shrunken log2 fold change” value is -0.76. Consider RRIRERPPRLPRPRPRPTVYPRP, for which the “shrunken log2 fold change” value is -0.194. The figure for RRIRPRPPRLPRPRPRPGDTPRP is -0.0266; for RRIRCRPPRLPRPRPRPSWKPRP it is -0.0761. As to RRIRGRPPRLPRPRPRPALNPRP, the “shrunken log2 fold change” value amounted to 0.705.

With RRIRDRPPRLPRPRPRPRYHPRP, the “shrunken log2 fold change” value is -0.0202. For RRIRKRPPRLPRPRPRPEIGPRP, the “shrunken log2 fold change” value is 0.191. Turning to RRIRGRPPRLPRPRPRPYRGPRP, the “shrunken log2 fold change” value was -0.186. The figure for RRIRPRPPRLPRPRPRPNNSPRP is -0.488; for RRIRERPPRLPRPRPRPADSPRP it is -0.157. For the sequence RRIRYRPPRLPRPRPRPGQHPRP, the “shrunken log2 fold change” value was -0.179. On to RRIRERPPRLPRPRPRPRWQPRP, for which the “shrunken log2 fold change” value worked out at 0.245. The figure for RRIRSRPPRLPRPRPRPTDQPRP is 0.16; for RRIRGRPPRLPRPRPRPMDVPRP it is 0.265. For RRIRPRPPRLPRPRPRPIIRPRP, the “shrunken log2 fold change” value is -0.168. Regarding RRIRKRPPRLPRPRPRPCDIPRP, the “shrunken log2 fold change” value was -0.0579. Then RRIRNRPPRLPRPRPRPKVPPRP, with -0.129; and RRIRYRPPRLPRPRPRPTHPPRP, with -0.311; and RRIRARPPRLPRPRPRPWSYPRP, with -0.0574. Then RRIRPRPPRLPRPRPRPSMDPRP, with -0.448.

As for RRIRARPPRLPRPRPRPTTSPRP, the “shrunken log2 fold change” value turned out to be 0.292.

As to RRIRFRPPRLPRPRPRPPWMPRP, the “shrunken log2 fold change” value stood at 0.355. With RRIRKRPPRLPRPRPRPPGMPRP, the “shrunken log2 fold change” value is 0.473. The figure for RRIRIRPPRLPRPRPRPEWEPRP is 0.068; for RRIRCRPPRLPRPRPRPIYKPRP it is -0.559; for RRIRKRPPRLPRPRPRPSFLPRP it is 0.104.

For the sequence RRIRYRPPRLPRPRPRPVMQPRP, the “shrunken log2 fold change” value is -0.315. Then RRIRTRPPRLPRPRPRPDSGPRP, with -0.0764. Consider RRIRWRPPRLPRPRPRPYNGPRP, for which the “shrunken log2 fold change” value is -0.668. Take RRIRKRPPRLPRPRPRPSNHPRP: the “shrunken log2 fold change” value is -0.347.

As for RRIRSRPPRLPRPRPRPIIWPRP, the “shrunken log2 fold change” value was -0.174. In the case of RRIRPRPPRLPRPRPRPCAKPRP, the “shrunken log2 fold change” value was -0.0518. Regarding RRIRVRPPRLPRPRPRPRVQPRP, the “shrunken log2 fold change” value was 0.328. Take RRIRTRPPRLPRPRPRPPGWPRP: the “shrunken log2 fold change” value stood at 0.758. Take RRIRARPPRLPRPRPRPIWWPRP: the “shrunken log2 fold change” value was -0.00662. With RRIRPRPPRLPRPRPRPFTPPRP, the “shrunken log2 fold change” value was -0.112. Regarding RRIRARPPRLPRPRPRPPKHPRP, the “shrunken log2 fold change” value was found to be 0.472. For RRIRKRPPRLPRPRPRPDACPRP, the “shrunken log2 fold change” value came out at 0.00649.

In the case of RRIRRRPPRLPRPRPRPAAQPRP, the “shrunken log2 fold change” value was found to be 0.462.
